Reference: US20260152573A1 (ARGENX, published 2026)

What was measured:
[1] = molecular target: T1, neonatal Fc receptor (FcRn), endogenous in U937 cells (human, UniProt P55899 24-365; P61769 21-119); experiment: FcRn occupancy, FACS, U937 cells, with albumin
T1 construct: whole, on cells; Free FcRn was stained intracellularly after fixation and permeabilisation
Procedure: (§1) Next, FcRn occupancy was tested using a cell-based FcRn occupancy assay in the presence or absence of albumin. […] Cells (HEK FcRn mut or U937) were plated in a 96-well microplate. Cells were incubated with test article for two hours, shaking at 37° C., pH 7.4 in FACS buffer. Plates were then transferred immediately on ice and cells were collected by centrifugation at 4° C. Cells stained for viability in FACS buffer at pH 6 and then fixed/permeabilized in permeabilization buffer at pH 6. […] Cells were analyzed by FACS, ensuring that they are kept on ice until immediately prior to analysis.

[2] = molecular target: T2, human serum albumin (human, UniProt P02768 25-609); experiment: SPR (Biacore), albumin binding at pH 5.5 and pH 7.4; concentration not given; the legend says only albumin, the example names albumin coated and construct flown over
T2 construct: Immobilised on SPR chips; also added in solution in the FcRn occupancy assays; also called HSA; humanSA

[3] = molecular target: T2, human serum albumin; experiment: SPR Biacore 8K+ SCK, albumin on chip, pH 7.4; pH 7.4
[4] = molecular target: T3, cynomolgus monkey serum albumin (cynomolgus monkey, UniProt A2V9Z4 25-608); experiment: SPR Biacore 8K+ SCK, albumin on chip, pH 7.4
T3 construct: Immobilised on SPR chips; also called cynoSA; cynomolgus albumin

[5] = molecular target: T2, human serum albumin; experiment: SPR Biacore 8K+ SCK, albumin on chip, pH 5.5
[6] = molecular target: T3, cynomolgus monkey serum albumin; experiment: SPR Biacore 8K+ SCK, albumin on chip, pH 5.5
[7] = molecular target: T3, cynomolgus monkey serum albumin; experiment: SPR Biacore 8K+ SCK, albumin on chip, pH 7.4; remark: listed apart in the source
[8] = molecular target: T2, human serum albumin; experiment: SPR Biacore 8K+ SCK, albumin on chip, pH 7.4
[9] = molecular target: T4, isolated domain II of serum albumin (UniProt P02768 213-409, limits assumed); experiment: screening by ELISA/Biacore
T4 construct: domain: DII; also called isolated DII

[10] = molecular target: T3, cynomolgus monkey serum albumin; experiment: screening by ELISA/Biacore
[11] = molecular target: T5, mouse serum albumin (mouse, UniProt P07724 25-608); experiment: screening by ELISA/Biacore
T5 construct: Immobilised on SPR chips; also called mouseSA; MSA

[12] = molecular target: T1, neonatal Fc receptor (FcRn), endogenous …; experiment: cell-based FcRn occupancy assay on U937 cells, flow cytometry; free FcRn stained with anti-FcRn-Fab AF647
[13] = molecular target: T1, neonatal Fc receptor (FcRn), endogenous …; experiment: FcRn occupancy, FACS, U937 cells, without albumin
Procedure: as §1

T1 sequence (P55899 24-365 limits assumed, chain 1 of 2): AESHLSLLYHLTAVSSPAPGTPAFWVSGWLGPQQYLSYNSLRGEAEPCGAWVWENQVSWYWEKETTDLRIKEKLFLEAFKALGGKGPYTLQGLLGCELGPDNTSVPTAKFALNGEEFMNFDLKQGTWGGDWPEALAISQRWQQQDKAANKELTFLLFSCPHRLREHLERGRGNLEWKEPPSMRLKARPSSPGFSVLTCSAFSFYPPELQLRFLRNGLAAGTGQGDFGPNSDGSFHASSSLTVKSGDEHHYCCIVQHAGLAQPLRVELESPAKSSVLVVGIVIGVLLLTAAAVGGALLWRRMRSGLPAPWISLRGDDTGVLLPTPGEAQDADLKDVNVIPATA
T1 sequence (P61769 21-119 limits assumed, chain 2 of 2): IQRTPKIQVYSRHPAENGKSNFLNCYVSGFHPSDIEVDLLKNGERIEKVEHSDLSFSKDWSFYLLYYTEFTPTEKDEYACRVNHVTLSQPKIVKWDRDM

B1: TA-Fc-ABDEG-Alb23 (Fc fusion)
chain: DKTHTCPPCPAPELLGGPSVFLFPPKPKDTLYITREPEVTCVVVDVSHEDPEVKFNWYVDGVEVHNAKTKPREEQYNSTYRVVSVLTVLHQDWLNGKEYKCKVSNKALPAPIEKTISKAKGQPREPQVYTLPPSRDELTKNQVSLTCLVKGFYPSDIAVEWESNGQPENNYKTTPPVLDSDGSFFLYSKLTVDKSRWQQGNVFSCSVMHEALKFHYTQKSLSLSPGGGGGSGGGGSGGGGSGGGGSEVQLLESGGGLVQPGGSLRLSCAASGFTFRSFGMSWVRQAPGKGPEWVSSISGSGSDTLYADSVKGRFTISRDNSKNTLYLQMNSLRPEDTAVYYCTIGGSLSRSSQGTLVTVSS
notes: also called Fc-ABDEG-Alb23 (two-armed)
% max occupancy [1]: 69.7%
IC50 [1]: 14.5 nM
binding result [2]: binds

B2: Alb23 (VHH)
VHH: EVQLLESGGGLVQPGGSLRLSCAASGFTFRSFGMSWVRQAPGKGPEWVSSISGSGSDTLYADSVKGRFTISRDNSKNTLYLQMNSLRPEDTAVYYCTIGGSLSRSSQGTLVTVSS
notes: VHH alone, injected in solution; also called VHH-Alb23_Parental (#1); Alb23 parental
Kd [3]: 2.37 nM
Kd [4]: 2.68 nM
Kd [5]: 1.42 nM
Kd [6]: 1.32 nM
Kd [7]: 2.68 nM
Kd [8]: 2.37 nM

B3: 2H11 (VHH)
VHH: ELQVVESGGGLVQAGGSLRLSCAASGRTFRSNTMGWFRQAPGKEREFVAAITWSGGTTYYADSVKGRFAISGDNAKNTVYLQMNSLKPEDTAVYYCAAEGPKWEPWNGIYHPADFGSWGQGTQVTVSS
notes: Clone from llama phage display libraries; also called 2H11 parental VHH; clone 2H11
binding result [9]: no binding
binding result [10]: no binding
binding result [11]: no binding

B4: mAb37-OA-ABDEG (antibody, human IgG1, kappa)
heavy: QVQLVQSGAEVMKPGSSVKVSCKASGYTFSWYHLEWVRQAPGHGLEWMGEIDPGTFTTNYNEKFKARVTFTADTSTSTAYMELSSLRSEDTAVYYCARFSHFSGSNHDYFDYWGQGTLVTVSSASTKGPSVFPLAPSSKSTSGGTAALGCLVKDYFPEPVTVSWNSGALTSGVHTFPAVLQSSGLYSLSSVVTVPSSSLGTQTYICNVNHKPSNTKVDKKVEPKSCDKTHTCPPCPAPELLGGPSVFLFPPKPKDTLYITREPEVTCVVVDVSHEDPEVKFNWYVDGVEVHNAKTKPREEQYNSTYRVVSVLTVLHQDWLNGKEYKCKVSNKALPAPIEKTISKAKGQPREPQVYTLPPSRDELTKNQVSLWCLVKGFYPSDIAVEWESNGQPENNYKTTPPVLDSDGSFFLYSKLTVDKSRWQQGNVFSCSVMHEALKFHYTQKSLSLSPG
light: EIVMTQSPATLSVSPGERATLSCRASQSIGTNIHWYQQKPGQAPRLLIYYASESISGIPARFSGSGSGTEFTLTISSLQSEDFAVYYCQQSWSWPTTFGGGTKVEIKRTVAAPSVFIFPPSDEQLKSGTASVVCLLNNFYPREAKVQWKVDNALQSGNSQESVTEQDSKDSTYSLSSTLTLSKADYEKHKVYACEVTHQGLSSPVTKSFNRGEC
chain: DKTHTCPPCPAPELLGGPSVFLFPPKPKDTLYITREPEVTCVVVDVSHEDPEVKFNWYVDGVEVHNAKTKPREEQYNSTYRVVSVLTVLHQDWLNGKEYKCKVSNKALPAPIEKTISKAKGQPREPQVYTLPPSRDELTKNQVSLSCAVKGFYPSDIAVEWESNGQPENNYKTTPPVLDSDGSFFLVSKLTVDKSRWQQGNVFSCSVMHEALKFHYTQKSLSLSPG
notes: it is not used here as a chain; also called one-armed NT-mAb37 Fab attached to Fc-ABDEG via natural hinge region
IC50 (read off the curve) [12]: ~1 nM

B5: OA-Alb23-Fc-ABDEG (Fc fusion)
chain: EVQLLESGGGLVQPGGSLRLSCAASGFTFRSFGMSWVRQAPGKGPEWVSSISGSGSDTLYADSVKGRFTISRDNSKNTLYLQMNSLRPEDTAVYYCTIGGSLSRSSQGTLVTVSSDKTHTCPPCPAPELLGGPSVFLFPPKPKDTLYITREPEVTCVVVDVSHEDPEVKFNWYVDGVEVHNAKTKPREEQYNSTYRVVSVLTVLHQDWLNGKEYKCKVSNKALPAPIEKTISKAKGQPREPQVYTLPPSRDELTKNQVSLWCLVKGFYPSDIAVEWESNGQPENNYKTTPPVLDSDGSFFLYSKLTVDKSRWQQGNVFSCSVMHEALKFHYTQKSLSLSPG
Fc: DKTHTCPPCPAPELLGGPSVFLFPPKPKDTLYITREPEVTCVVVDVSHEDPEVKFNWYVDGVEVHNAKTKPREEQYNSTYRVVSVLTVLHQDWLNGKEYKCKVSNKALPAPIEKTISKAKGQPREPQVYTLPPSRDELTKNQVSLSCAVKGFYPSDIAVEWESNGQPENNYKTTPPVLDSDGSFFLVSKLTVDKSRWQQGNVFSCSVMHEALKFHYTQKSLSLSPG
% max occupancy [1]: 51.1%
IC50 [1]: 25 nM
IC50 [13]: 8.5 nM

B6: TA-Alb23-Fc-ABDEG (Fc fusion)
chain: EVQLLESGGGLVQPGGSLRLSCAASGFTFRSFGMSWVRQAPGKGPEWVSSISGSGSDTLYADSVKGRFTISRDNSKNTLYLQMNSLRPEDTAVYYCTIGGSLSRSSQGTLVTVSSDKTHTCPPCPAPELLGGPSVFLFPPKPKDTLYITREPEVTCVVVDVSHEDPEVKFNWYVDGVEVHNAKTKPREEQYNSTYRVVSVLTVLHQDWLNGKEYKCKVSNKALPAPIEKTISKAKGQPREPQVYTLPPSRDELTKNQVSLTCLVKGFYPSDIAVEWESNGQPENNYKTTPPVLDSDGSFFLYSKLTVDKSRWQQGNVFSCSVMHEALKFHYTQKSLSLSPG
notes: Two Alb23 VHH fragments at the N-termini of both Fc domains of efgartigimod; also called two-armed N-terminal anti-HSA-Fc-ABDEG
% max occupancy [1]: 39.1%
IC50 [1]: 389 nM
IC50 [13]: 7.5 nM
